{"source": "IntAct's records for PubMed 20404169", "parents": {"B1": {"name": "Protein kinase C and casein kinase substrate in neurons protein 1 (Mus musculus), Q61644 (parent)", "chain": "MSGSYDEASEEITDSFWEVGNYKRTVKRIDDGHRLCNDLMSCVQERAKIEKAYAQQLTDWAKRWRQLIEKGPQYGSLERAWGAMMTEADKVSELHQEVKNSLLNEDLEKVKNWQKDAYHKQIMGGFKETKEAEDGFRKAQKPWAKKMKELEAAKKAYHLACKEERLAMTREMNSKTEQSVTPEQQKKLVDKVDKCRQDVQKTQEKYEKVLEDVGKTTPQYMEGMEQVFEQCQQFEEKRLVFLKEVLLDIKRHLNLAENSSYMHVYRELEQAIRGADAQEDLRWFRSTSGPGMPMNWPQFEEWNPDLPHTTAKKEKQPKKAEGATLSNATGAVESTSQAGDRGSVSSYDRGQTYATEWSDDESGNPFGGNEANGGANPFEDDAKGVRVRALYDYDGQEQDELSFKAGDELTKLGEEDEQGWCRGRLDSGQLGLYPANYVEAI", "partner": "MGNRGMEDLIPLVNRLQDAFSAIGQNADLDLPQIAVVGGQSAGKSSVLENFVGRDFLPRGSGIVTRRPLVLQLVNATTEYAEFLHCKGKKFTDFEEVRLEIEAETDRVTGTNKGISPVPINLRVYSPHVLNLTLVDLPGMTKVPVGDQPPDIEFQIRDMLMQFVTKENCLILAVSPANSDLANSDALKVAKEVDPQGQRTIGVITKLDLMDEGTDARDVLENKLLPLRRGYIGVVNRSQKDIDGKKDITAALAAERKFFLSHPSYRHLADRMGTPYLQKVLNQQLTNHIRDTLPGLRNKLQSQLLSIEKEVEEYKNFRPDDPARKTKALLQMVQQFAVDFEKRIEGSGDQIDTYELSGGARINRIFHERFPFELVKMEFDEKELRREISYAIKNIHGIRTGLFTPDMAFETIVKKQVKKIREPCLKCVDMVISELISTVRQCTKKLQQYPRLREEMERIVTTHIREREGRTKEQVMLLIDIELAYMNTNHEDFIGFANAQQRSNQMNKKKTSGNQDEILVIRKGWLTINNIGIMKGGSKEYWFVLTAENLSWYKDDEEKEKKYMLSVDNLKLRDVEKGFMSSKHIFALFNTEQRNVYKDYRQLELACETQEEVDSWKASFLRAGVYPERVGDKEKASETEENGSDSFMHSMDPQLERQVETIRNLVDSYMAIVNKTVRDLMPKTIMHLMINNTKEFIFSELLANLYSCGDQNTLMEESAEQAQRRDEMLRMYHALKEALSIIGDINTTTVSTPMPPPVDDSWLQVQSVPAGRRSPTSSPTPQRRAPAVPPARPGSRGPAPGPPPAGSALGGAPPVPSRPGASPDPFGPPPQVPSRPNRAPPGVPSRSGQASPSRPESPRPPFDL"}}}
{"variants_of": "B1", "conditions": "with dyn1_human DNM1, Q05193"}
{"variant": "D394R;E400R", "effect of a mutation on the interaction": "decreasing interaction strength"}
{"variant": "E400R", "effect of a mutation on the interaction": "decreasing interaction"}
{"variant": "P434L", "effect of a mutation on the interaction": "decreasing interaction"}
